The test addresses T1, recombinant His-tagged wild-type SARS-CoV-2 Spike trimer (SARS-CoV-2, Wuhan-Hu-1 (wild-type), UniProt P0DTC2).
T1 construct: also called wild-type Spike trimer; wild-type Spike
As to the kind of experiment: flow cytometry on cells; Cas1-CAR-NK92MI cells displaying the scFv-CAR incubated with recombinant His-tagged Spike trimer in PBS with 0.5 mM CaCl2 and 0.9 mM MgCl2, 1 hour at 4°C under gentle agitation; washed, stained with PE anti-His and Alexa Fluor 647 anti-human IgG (H+L); parental NK92MI as negative and 293T-hACE2 as positive control. To be noted: one partner purified. For orientation: Flow cytometry measures light scatter and fluorescence of single cells or particles in a stream.

B1: REGN10933 (casirivimab) single chain variable fragment displayed as a chimeric antigen receptor on NK92MI cells (scFv, V domains shown)
VH: QVQLVESGGGLVKPGGSLRLSCAASGFTFSDYYMSWIRQAPGKGLEWVSYITYSGSTIYYADSVKGRFTISRDNAKSSLYLQMNSLRAEDTAVYYCARDRGTTMVPFDYWGQGTLVTVSS
VL: DIQMTQSPSSLSASVGDRVTITCQASQDITNYLNWYQQKPGKAPKLLIYAASNLETGVPSRFSGSGSGTDFTFTISGLQPEDIATYYCQQYDNLPLTFGGGTKVEIK
notes: scFv domain of casirivimab (REGN10933); the variable domains are those of REGN10933 in PDB 6XDG; rest of the chimeric antigen receptor (hinge, transmembrane and signalling parts); also called Cas1-CAR; Cas1
Consider B1, for which the binding result is given as “binds”.

The record behind these values is PMC10371346, “Modeling of ACE2 and antibodies bound to SARS-CoV-2 provides insights into infectivity and immune evasion” (JCI Insight, 2023).
